Assay results published in article PMC8654305.

Molecular target: recombinant N-terminal His6-tagged GlgB (Synechocystis sp. PCC 6803) (UniProt P52981)
Experiment: MST

Chain of recombinant N-terminal His6-tagged GlgB (Synechocystis sp. PCC 6803) (P52981 whole entry): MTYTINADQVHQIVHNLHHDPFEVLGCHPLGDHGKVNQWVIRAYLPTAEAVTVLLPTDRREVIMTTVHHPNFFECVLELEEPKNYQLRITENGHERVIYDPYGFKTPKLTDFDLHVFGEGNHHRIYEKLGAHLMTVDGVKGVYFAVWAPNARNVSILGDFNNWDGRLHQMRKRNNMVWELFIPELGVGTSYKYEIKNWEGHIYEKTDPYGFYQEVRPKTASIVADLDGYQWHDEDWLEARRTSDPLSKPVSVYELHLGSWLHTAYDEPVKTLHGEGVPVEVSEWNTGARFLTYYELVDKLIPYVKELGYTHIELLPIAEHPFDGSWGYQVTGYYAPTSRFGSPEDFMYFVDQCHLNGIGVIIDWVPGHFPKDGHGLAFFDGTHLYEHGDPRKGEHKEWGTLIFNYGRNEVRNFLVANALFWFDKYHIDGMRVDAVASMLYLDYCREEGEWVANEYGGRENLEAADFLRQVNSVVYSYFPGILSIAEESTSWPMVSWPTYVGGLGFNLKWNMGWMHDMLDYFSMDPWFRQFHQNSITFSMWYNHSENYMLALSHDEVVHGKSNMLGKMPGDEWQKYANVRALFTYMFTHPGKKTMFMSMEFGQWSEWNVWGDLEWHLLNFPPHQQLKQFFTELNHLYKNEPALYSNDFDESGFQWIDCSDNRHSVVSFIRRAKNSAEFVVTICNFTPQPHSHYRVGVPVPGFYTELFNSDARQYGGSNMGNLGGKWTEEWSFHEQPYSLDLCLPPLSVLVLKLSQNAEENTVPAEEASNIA

Kd: 0.22 µM
Substance: recombinant C-terminal StrepII-tagged ScSbtB (SbtB from Synechocystis sp. PCC 6803) (from UniProt P73954 1-110) (natural protein)
